% Unbound by a2M data for one molecule are collected here from US20070093443A1.

For this experiment, the target named is T1, alpha-2 macroglobulin (in human plasma) (human) (UniProt P01023).
T1 sequence (looked up): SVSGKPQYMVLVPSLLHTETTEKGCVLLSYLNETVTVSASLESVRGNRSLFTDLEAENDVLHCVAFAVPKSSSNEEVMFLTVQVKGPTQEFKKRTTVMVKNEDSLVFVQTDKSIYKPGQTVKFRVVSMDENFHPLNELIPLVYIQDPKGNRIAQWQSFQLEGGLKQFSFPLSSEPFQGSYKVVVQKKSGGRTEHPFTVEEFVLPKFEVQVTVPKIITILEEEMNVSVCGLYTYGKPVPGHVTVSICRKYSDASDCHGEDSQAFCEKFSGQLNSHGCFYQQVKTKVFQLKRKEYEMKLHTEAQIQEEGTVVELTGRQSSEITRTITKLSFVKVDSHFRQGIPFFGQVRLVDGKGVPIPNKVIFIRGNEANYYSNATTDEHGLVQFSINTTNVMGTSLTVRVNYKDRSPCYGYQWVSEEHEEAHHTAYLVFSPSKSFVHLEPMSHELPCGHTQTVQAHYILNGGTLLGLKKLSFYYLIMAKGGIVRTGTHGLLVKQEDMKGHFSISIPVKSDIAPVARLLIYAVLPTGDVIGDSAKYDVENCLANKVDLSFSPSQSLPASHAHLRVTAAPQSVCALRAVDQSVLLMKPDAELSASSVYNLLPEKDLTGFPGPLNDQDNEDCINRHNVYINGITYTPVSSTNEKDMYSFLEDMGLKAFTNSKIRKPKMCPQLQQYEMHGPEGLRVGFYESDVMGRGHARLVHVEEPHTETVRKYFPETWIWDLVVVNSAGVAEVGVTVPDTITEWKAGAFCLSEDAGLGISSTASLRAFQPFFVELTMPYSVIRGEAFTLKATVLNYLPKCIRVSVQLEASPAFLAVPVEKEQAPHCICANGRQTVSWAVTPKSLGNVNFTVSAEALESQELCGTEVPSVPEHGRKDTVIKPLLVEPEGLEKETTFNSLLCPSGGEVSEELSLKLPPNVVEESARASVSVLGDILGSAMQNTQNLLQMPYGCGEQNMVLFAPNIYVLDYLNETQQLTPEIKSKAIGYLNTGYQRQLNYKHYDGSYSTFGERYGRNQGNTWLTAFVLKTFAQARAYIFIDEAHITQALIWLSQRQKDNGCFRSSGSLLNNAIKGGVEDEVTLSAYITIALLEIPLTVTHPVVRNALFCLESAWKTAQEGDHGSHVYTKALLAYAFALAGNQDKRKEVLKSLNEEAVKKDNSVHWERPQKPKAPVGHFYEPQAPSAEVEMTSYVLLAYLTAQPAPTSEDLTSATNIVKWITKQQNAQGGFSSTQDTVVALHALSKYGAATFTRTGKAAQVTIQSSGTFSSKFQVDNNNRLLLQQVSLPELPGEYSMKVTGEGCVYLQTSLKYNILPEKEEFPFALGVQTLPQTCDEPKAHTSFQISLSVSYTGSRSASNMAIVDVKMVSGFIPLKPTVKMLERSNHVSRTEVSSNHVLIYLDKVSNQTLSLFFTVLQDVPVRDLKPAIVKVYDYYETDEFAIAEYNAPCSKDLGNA
The experiment in a line: Ac-RQAR-AMC activity of protease after 5 min in human citrated plasma, with and without M84R ecotin.

B1: modified MT-SP1 CB484 (I41T/Y146E/Q175D/K224F) protease domain (enzyme)
chain: VVGGTDADEGEWPWQVSLHALGQGHTCGASLISPNWLVSAAHCYIDDRGFRYSDPTQWTAFLGLHDQSQRSAPGVQERRLKRIISHPFFNDFTFDYDIALLELEKPAEYSSMVRPICLPDASHVFPAGKAIWVTGWGHTQEGGTGALILQKGEIRVINQTTCENLLPQDITPRMMCVGFLSGGVDSCQGDSGGPLSSVEADGRIFQAGVVSWGDGCAQRNFPGVYTRLPLFRDWIKENTGV
As for B1, the % Unbound by a2M worked out at 94%.
